Measured values reported in IntAct's records for PubMed 19846556.

B1: Peroxisome proliferator-activated receptor gamma coactivator 1-alpha (Homo sapiens), Q9UBK2 (parent)
chain: MAWDMCNQDSESVWSDIECAALVGEDQPLCPDLPELDLSELDVNDLDTDSFLGGLKWCSDQSEIISNQYNNEPSNIFEKIDEENEANLLAVLTETLDSLPVDEDGLPSFDALTDGDVTTDNEASPSSMPDGTPPPQEAEEPSLLKKLLLAPANTQLSYNECSGLSTQNHANHNHRIRTNPAIVKTENSWSNKAKSICQQQKPQRRPCSELLKYLTTNDDPPHTKPTENRNSSRDKCTSKKKSHTQSQSQHLQAKPTTLSLPLTPESPNDPKGSPFENKTIERTLSVELSGTAGLTPPTTPPHKANQDNPFRASPKLKSSCKTVVPPPSKKPRYSESSGTQGNNSTKKGPEQSELYAQLSKSSVLTGGHEERKTKRPSLRLFGDHDYCQSINSKTEILINISQELQDSRQLENKDVSSDWQGQICSSTDSDQCYLRETLEASKQVSPCSTRKQLQDQEIRAELNKHFGHPSQAVFDDEADKTGELRDSDFSNEQFSKLPMFINSGLAMDGLFDDSEDESDKLSYPWDGTQSYSLFNVSPSCSSFNSPCRDSVSPPKSLFSQRPQRMRSRSRSFSRHRSCSRSPYSRSRSRSPGSRSSSRSCYYYESSHYRHRTHRNSPLYVRSRSRSPYSRRPRYDSYEEYQHERLKREEYRREYEKRESERAKQRERQRQKAIEERRVIYVGKIRPDTTRTELRDRFEVFGEIEECTVNLRDDGDSYGFITYRYTCDAFAALENGYTLRRSNETDFELYFCGRKQFFKSNYADLDSNSDDFDPASTKSKYDSLDFDSLLKEAQRSLRR
partner: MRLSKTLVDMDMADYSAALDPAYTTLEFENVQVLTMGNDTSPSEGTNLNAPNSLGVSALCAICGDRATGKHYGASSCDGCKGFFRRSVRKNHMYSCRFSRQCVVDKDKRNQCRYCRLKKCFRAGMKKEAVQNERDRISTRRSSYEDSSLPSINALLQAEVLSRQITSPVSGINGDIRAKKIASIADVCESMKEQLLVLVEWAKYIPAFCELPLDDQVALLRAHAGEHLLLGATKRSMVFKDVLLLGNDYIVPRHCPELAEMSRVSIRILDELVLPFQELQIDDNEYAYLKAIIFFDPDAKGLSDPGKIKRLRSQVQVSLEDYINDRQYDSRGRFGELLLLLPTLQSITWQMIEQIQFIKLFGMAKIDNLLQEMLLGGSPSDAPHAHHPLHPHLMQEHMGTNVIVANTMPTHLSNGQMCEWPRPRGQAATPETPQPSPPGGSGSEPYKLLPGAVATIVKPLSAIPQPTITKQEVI

Experiments:
[1] = variants of: B1; settings: with hnf4a_human HNF4A
[2] = variants of: B1; settings: with hnf4a_human HNF4A; remark: listed apart in the source

| Variant | effect of a mutation on the interaction [1] | effect of a mutation on the interaction [2] |
| --- | --- | --- |
| V91A;L92A;L147A;L148A;Y213A;L214A | disrupting interaction | disrupting interaction |
| L147A;L148A | decreasing interaction |  |
| V91A;L92A;Y213A;L214A | decreasing interaction | decreasing interaction |
| V91A;L92A |  | decreasing interaction |
| Y213A;L214A | decreasing interaction |  |
| L147A;L148A;Y213A;L214A | disrupting interaction | disrupting interaction |
| V91A;L92A;L147A;L148A | decreasing interaction | decreasing interaction |
